Reference: patent US20160272683A1 (Novo Nordisk, published 2016)
Numbered stars: 1 amine (or outer) side, 2 acyl side, 3 side chain; on linkers, the order of the positions; unused ones are H or OH. * marks the point of attachment. C20 diacid = O=C(O)CCCCCCCCCCCCCCCCCCC(=O)*; γGlu = O=C(O)[C@H](CCC(=O)[*:2])N[*:1]

These binders were tested against T1, human calcitonin receptor (human, UniProt P30988 25-474) (assay: whole-cell competition vs 125I-human calcitonin (Assay VIIa)).
T1 construct: whole, on cells; also called hCT-R; hCTR
T1 sequence (looked up): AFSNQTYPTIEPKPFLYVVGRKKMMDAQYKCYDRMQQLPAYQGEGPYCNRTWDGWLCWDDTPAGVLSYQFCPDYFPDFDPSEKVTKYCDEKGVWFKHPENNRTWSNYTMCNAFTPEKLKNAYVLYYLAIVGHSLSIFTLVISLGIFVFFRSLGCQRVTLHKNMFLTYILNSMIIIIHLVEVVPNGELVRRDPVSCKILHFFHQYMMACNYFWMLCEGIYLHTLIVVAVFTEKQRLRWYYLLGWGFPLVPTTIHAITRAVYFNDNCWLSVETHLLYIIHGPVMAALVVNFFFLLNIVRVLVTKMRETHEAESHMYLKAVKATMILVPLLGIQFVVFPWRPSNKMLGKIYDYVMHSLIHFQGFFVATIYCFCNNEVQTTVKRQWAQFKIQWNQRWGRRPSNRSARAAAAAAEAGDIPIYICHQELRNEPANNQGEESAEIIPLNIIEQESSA
How it was run: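 BHK tk'ts 13 cells stably co-expressing human calcitonin receptor and a CRE-luciferase reporter, seeded overnight at 37 °C. Bound tracer counted by scintillation after cold HBSS washes and NaOH/SDS lysis; IC₅₀ from one-site competition fit taken as receptor affinity.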

IC50	Binder
2.94 nM	{C20 diacid-γGlu}-ASELSTATLGRLSAELHELSTYPRTETGSGSP-NH2 (SMILES CC(C)C[C@H](NC(=O)[C@H](CCCNC(=N)N)NC(=O)CNC(=O)[C@H](CC(C)C)NC(=O)[C@@H](NC(=O)[C@H](C)NC(=O)[C@@H](NC(=O)[C@H](CO)NC(=O)[C@H](CC(C)C)NC(=O)[C@H](CCC(=O)O)NC(=O)[C@H](CO)NC(=O)[C@H](C)NC(=O)CC[C@H](NC(=O)CCCCCCCCCCCCCCCCCCC(=O)O)C(=O)O)[C@@H](C)O)[C@@H](C)O)C(=O)N[C@@H](CO)C(=O)N[C@@H](C)C(=O)N[C@@H](CCC(=O)O)C(=O)N[C@@H](CC(C)C)C(=O)N[C@@H](Cc1c[nH]cn1)C(=O)N[C@@H](CCC(=O)O)C(=O)N[C@@H](CC(C)C)C(=O)N[C@@H](CO)C(=O)N[C@H](C(=O)N[C@@H](Cc1ccc(O)cc1)C(=O)N1CCC[C@H]1C(=O)N[C@@H](CCCNC(=N)N)C(=O)N[C@H](C(=O)N[C@@H](CCC(=O)O)C(=O)N[C@H](C(=O)NCC(=O)N[C@@H](CO)C(=O)NCC(=O)N[C@@H](CO)C(=O)N1CCC[C@H]1C(N)=O)[C@@H](C)O)[C@@H](C)O)[C@@H](C)O, also called Ex. #92) [[N-terminal(C20 diacid-gGlu), des1, 9T, 21S, 23Y, 30S, 31G]mimylin]
1.03 nM	{C20 diacid-γGlu}-ASELSTAALGHLSAELHELATLPHTETGTGTP-NH2 (SMILES CC(C)C[C@H](NC(=O)[C@H](C)NC(=O)[C@H](C)NC(=O)[C@@H](NC(=O)[C@H](CO)NC(=O)[C@H](CC(C)C)NC(=O)[C@H](CCC(=O)O)NC(=O)[C@H](CO)NC(=O)[C@H](C)NC(=O)CC[C@H](NC(=O)CCCCCCCCCCCCCCCCCCC(=O)O)C(=O)O)[C@@H](C)O)C(=O)NCC(=O)N[C@@H](Cc1c[nH]cn1)C(=O)N[C@@H](CC(C)C)C(=O)N[C@@H](CO)C(=O)N[C@@H](C)C(=O)N[C@@H](CCC(=O)O)C(=O)N[C@@H](CC(C)C)C(=O)N[C@@H](Cc1c[nH]cn1)C(=O)N[C@@H](CCC(=O)O)C(=O)N[C@@H](CC(C)C)C(=O)N[C@@H](C)C(=O)N[C@H](C(=O)N[C@@H](CC(C)C)C(=O)N1CCC[C@H]1C(=O)N[C@@H](Cc1c[nH]cn1)C(=O)N[C@H](C(=O)N[C@@H](CCC(=O)O)C(=O)N[C@H](C(=O)NCC(=O)N[C@H](C(=O)NCC(=O)N[C@H](C(=O)N1CCC[C@H]1C(N)=O)[C@@H](C)O)[C@@H](C)O)[C@@H](C)O)[C@@H](C)O)[C@@H](C)O, also called Ex. #93) [[N-terminal(C20 diacid-gGlu), des1, 12H, 25H, 30T, 31G, 32T]mimylin]
0.438 nM	{C20 diacid-γGlu}-ASELSTAALGHLSAELHELATLPRTETGSGSP-NH2 (also called Ex. #72) [[N-terminal(C20 diacid-gGlu), des1, 12H, 30S, 31G]mimylin]
0.628 nM	{C20 diacid-γGlu}-ASELSTAALGKLSAELHELATYPKTETGSGSY-NH2 (SMILES CC(C)C[C@H](NC(=O)[C@H](C)NC(=O)[C@H](C)NC(=O)[C@@H](NC(=O)[C@H](CO)NC(=O)[C@H](CC(C)C)NC(=O)[C@H](CCC(=O)O)NC(=O)[C@H](CO)NC(=O)[C@H](C)NC(=O)CC[C@H](NC(=O)CCCCCCCCCCCCCCCCCCC(=O)O)C(=O)O)[C@@H](C)O)C(=O)NCC(=O)N[C@@H](CCCCN)C(=O)N[C@@H](CC(C)C)C(=O)N[C@@H](CO)C(=O)N[C@@H](C)C(=O)N[C@@H](CCC(=O)O)C(=O)N[C@@H](CC(C)C)C(=O)N[C@@H](Cc1c[nH]cn1)C(=O)N[C@@H](CCC(=O)O)C(=O)N[C@@H](CC(C)C)C(=O)N[C@@H](C)C(=O)N[C@H](C(=O)N[C@@H](Cc1ccc(O)cc1)C(=O)N1CCC[C@H]1C(=O)N[C@@H](CCCCN)C(=O)N[C@H](C(=O)N[C@@H](CCC(=O)O)C(=O)N[C@H](C(=O)NCC(=O)N[C@@H](CO)C(=O)NCC(=O)N[C@@H](CO)C(=O)N[C@@H](Cc1ccc(O)cc1)C(N)=O)[C@@H](C)O)[C@@H](C)O)[C@@H](C)O, also called Ex. #101) [[N-terminal(C20 diacid-gGlu), des1, 12K, 23Y, 25K, 30S, 31G, 33Y]mimylin]
0.307 nM	{C20 diacid-γGlu}-ASELSTAALGRLSAELHELSTYPRTETGSGSY-NH2 (SMILES CC(C)C[C@H](NC(=O)[C@H](C)NC(=O)[C@H](C)NC(=O)[C@@H](NC(=O)[C@H](CO)NC(=O)[C@H](CC(C)C)NC(=O)[C@H](CCC(=O)O)NC(=O)[C@H](CO)NC(=O)[C@H](C)NC(=O)CC[C@H](NC(=O)CCCCCCCCCCCCCCCCCCC(=O)O)C(=O)O)[C@@H](C)O)C(=O)NCC(=O)N[C@@H](CCCNC(=N)N)C(=O)N[C@@H](CC(C)C)C(=O)N[C@@H](CO)C(=O)N[C@@H](C)C(=O)N[C@@H](CCC(=O)O)C(=O)N[C@@H](CC(C)C)C(=O)N[C@@H](Cc1c[nH]cn1)C(=O)N[C@@H](CCC(=O)O)C(=O)N[C@@H](CC(C)C)C(=O)N[C@@H](CO)C(=O)N[C@H](C(=O)N[C@@H](Cc1ccc(O)cc1)C(=O)N1CCC[C@H]1C(=O)N[C@@H](CCCNC(=N)N)C(=O)N[C@H](C(=O)N[C@@H](CCC(=O)O)C(=O)N[C@H](C(=O)NCC(=O)N[C@@H](CO)C(=O)NCC(=O)N[C@@H](CO)C(=O)N[C@@H](Cc1ccc(O)cc1)C(N)=O)[C@@H](C)O)[C@@H](C)O)[C@@H](C)O, also called Ex. #97) [[N-terminal(C20 diacid-gGlu), des1, 21S, 23Y, 30S, 31G, 33Y]mimylin]
4.93 nM	{C20 diacid-γGlu}-ASELSTAALGRLSAELHELATYPRTETGSGAP-NH2 (SMILES CC(C)C[C@H](NC(=O)[C@H](C)NC(=O)[C@H](C)NC(=O)[C@@H](NC(=O)[C@H](CO)NC(=O)[C@H](CC(C)C)NC(=O)[C@H](CCC(=O)O)NC(=O)[C@H](CO)NC(=O)[C@H](C)NC(=O)CC[C@H](NC(=O)CCCCCCCCCCCCCCCCCCC(=O)O)C(=O)O)[C@@H](C)O)C(=O)NCC(=O)N[C@@H](CCCNC(=N)N)C(=O)N[C@@H](CC(C)C)C(=O)N[C@@H](CO)C(=O)N[C@@H](C)C(=O)N[C@@H](CCC(=O)O)C(=O)N[C@@H](CC(C)C)C(=O)N[C@@H](Cc1c[nH]cn1)C(=O)N[C@@H](CCC(=O)O)C(=O)N[C@@H](CC(C)C)C(=O)N[C@@H](C)C(=O)N[C@H](C(=O)N[C@@H](Cc1ccc(O)cc1)C(=O)N1CCC[C@H]1C(=O)N[C@@H](CCCNC(=N)N)C(=O)N[C@H](C(=O)N[C@@H](CCC(=O)O)C(=O)N[C@H](C(=O)NCC(=O)N[C@@H](CO)C(=O)NCC(=O)N[C@@H](C)C(=O)N1CCC[C@H]1C(N)=O)[C@@H](C)O)[C@@H](C)O)[C@@H](C)O, also called Ex. #81) [[N-terminal(C20 diacid-gGlu), des1, 23Y, 30S, 31G, 32A]mimylin]
24.2 nM	{C20 diacid-γGlu}-ASELSTAALGRLSAELHELATYPRTETGSGSY-OH (also called Ex. #88) [[N-terminal(C20 diacid-gGlu), des1, 23Y, 30S, 31G, 33Y, C-terminal(-)]mimylin]
2.94 nM	{C20 diacid-γGlu}-ASELSTAALGRLSAELHELATYPRTETGSGSP-NH2 (SMILES CC(C)C[C@H](NC(=O)[C@H](C)NC(=O)[C@H](C)NC(=O)[C@@H](NC(=O)[C@H](CO)NC(=O)[C@H](CC(C)C)NC(=O)[C@H](CCC(=O)O)NC(=O)[C@H](CO)NC(=O)[C@H](C)NC(=O)CC[C@H](NC(=O)CCCCCCCCCCCCCCCCCCC(=O)O)C(=O)O)[C@@H](C)O)C(=O)NCC(=O)N[C@@H](CCCNC(=N)N)C(=O)N[C@@H](CC(C)C)C(=O)N[C@@H](CO)C(=O)N[C@@H](C)C(=O)N[C@@H](CCC(=O)O)C(=O)N[C@@H](CC(C)C)C(=O)N[C@@H](Cc1c[nH]cn1)C(=O)N[C@@H](CCC(=O)O)C(=O)N[C@@H](CC(C)C)C(=O)N[C@@H](C)C(=O)N[C@H](C(=O)N[C@@H](Cc1ccc(O)cc1)C(=O)N1CCC[C@H]1C(=O)N[C@@H](CCCNC(=N)N)C(=O)N[C@H](C(=O)N[C@@H](CCC(=O)O)C(=O)N[C@H](C(=O)NCC(=O)N[C@@H](CO)C(=O)NCC(=O)N[C@@H](CO)C(=O)N1CCC[C@H]1C(N)=O)[C@@H](C)O)[C@@H](C)O)[C@@H](C)O, also called Ex. #56) [[N-terminal(C20 diacid-gGlu), des1, 23Y, 30S, 31G]mimylin]
0.442 nM	{C20 diacid-γGlu}-ASELSTAALGRLSAELHELATLPHTETGSGSP-NH2 (SMILES CC(C)C[C@H](NC(=O)[C@H](C)NC(=O)[C@H](C)NC(=O)[C@@H](NC(=O)[C@H](CO)NC(=O)[C@H](CC(C)C)NC(=O)[C@H](CCC(=O)O)NC(=O)[C@H](CO)NC(=O)[C@H](C)NC(=O)CC[C@H](NC(=O)CCCCCCCCCCCCCCCCCCC(=O)O)C(=O)O)[C@@H](C)O)C(=O)NCC(=O)N[C@@H](CCCNC(=N)N)C(=O)N[C@@H](CC(C)C)C(=O)N[C@@H](CO)C(=O)N[C@@H](C)C(=O)N[C@@H](CCC(=O)O)C(=O)N[C@@H](CC(C)C)C(=O)N[C@@H](Cc1c[nH]cn1)C(=O)N[C@@H](CCC(=O)O)C(=O)N[C@@H](CC(C)C)C(=O)N[C@@H](C)C(=O)N[C@H](C(=O)N[C@@H](CC(C)C)C(=O)N1CCC[C@H]1C(=O)N[C@@H](Cc1c[nH]cn1)C(=O)N[C@H](C(=O)N[C@@H](CCC(=O)O)C(=O)N[C@H](C(=O)NCC(=O)N[C@@H](CO)C(=O)NCC(=O)N[C@@H](CO)C(=O)N1CCC[C@H]1C(N)=O)[C@@H](C)O)[C@@H](C)O)[C@@H](C)O, also called Ex. #73) [[N-terminal(C20 diacid-gGlu), des1, 25H, 30S, 31G]mimylin]
